# Test results: PMC4258549
# Experiments:
# biotinylated C4b (human) [1] = assay: AlphaScreen or HTRF
# biotinylated C4b (human) [2] = assay: AlphaScreen or HTRF; remark: listed apart in the source
# [3] = target: complement component C4b (human); assay: AUC
# biotinylated C4b (human) [4] = assay: SPR
Binder,IC50 (biotinylated C4b (human) [1]),IC50 (biotinylated C4b (human) [2]),stoichiometry N [3],Kd (biotinylated C4b (human) [2]),IC50 (biotinylated C4b (human) [4])
"complement component C2, recombinant, full-length (natural protein) APSCPQNVNISGGTFTLSHGWAPGSLLTYSCPQGLYPSPASRLCKSSGQWQTPGATRSLSKAVCKPVRCPAPVSFENGIYTPRLGSYPVGGNVSFECEDGFILRGSPVRQCRPNGMWDGETAVCDNGAGHCPNPGISLGAVRTGFRFGHGDKVRYRCSSNLVLTGSSERECQGNGVWSGTEPICRQPYSYDFPEDVAPALGTSFSHMLGATNPTQKTKESLGRKIQIQRSGHLNLYLLLDCSQSVSENDFLIFKESASLMVDRIFSFEINVSVAIITFASEPKVLMSVLNDNSRDMTEVISSLENANYKDHENGTGTNTYAALNSVYLMMNNQMRLLGMETMAWQEIRHAIILLTDGKSNMGGSPKTAVDHIREILNINQKRNDYLDIYAIGVGKLDVDWRELNELGSKKDGERHAFILQDTKALHQVFEHMLDVSKLTDTICGVGNMSANASDQERTPWHVTIKPKSQETCRGALISDQWVLTAAHCFRDGNDHSLWRVNVGDPKSQWGKEFLIEKAVISPGFDVFAKKNQGILEFYGDDIALLKLAQKVKMSTHARPICLPCTMEANLALRRPQGSTCRDHENELLNKQSVPAHFVALNGSKLNINLKMGVEWTSCAEVVSQEKTMFPNLTDVREVVTDQFLCSGTQEDESPCKGESGGAVFLERRFRFFQVGLVSWGLYNPCLGSADKNSRKRAPRSKVPPPRDFHINLFRMQPWLRQHLGDVLNFLPL",180 nM,460 nM,–,–,–
"extracellular adherence protein (Eap), recombinant, full-length, untagged (natural protein) AAKPLDKSSSTLHHGHSNIQIPYTITVNGTSQNILSSLTFNKNQNISYKDIENKVKSVLYFNRGISDIDLRLSKQAEYTVHFKNGTKRVIDLKSGIYTADLINTSDIKAISVNVDTKKQPKDKAKANVQVPYTITVNGTSQNILSNLTFNKNQNISYKDLEGKVKSVLESNRGITDVDLRLSKQAKYTVNFKNGTKKVIDLKSGIYTANLINSSDIKSININVDTKKHIENKAKRNYQVPYSINLNGTSTNILSNLSFSNKPWTNYKNLTSQIKSVLKHDRGISEQDLKYAKKAYYTVYFKNGGKRILQLNSKNYTANLVHAKDVKRIEITVKTGTKAKADRYVPYTIAVNGTSTPILSKLKISNKQLISYKYLNDKVKSVLKSERGISDLDLKFAKQAKYTVYFKNGKKQVVNLKSDIFTPNLFSAKDIKKIDIDVKQYTKSKKK",–,–,1,185 nM,50 nM
